Tested on: naïve T cells
Test: T cell proliferation (WST-8)
Assay type: cell-based, human
Settings: 67 nM antibody, 6 days
Protocol: For T cell proliferation, naïve T cells were purified from human PBMC using Pan T cell isolation kit (Miltenyi Biotec). 2×10^5 purified T cells were mixed with different antibodies in 96-well cell culture plate to a final volume of 250 μl/well. T cells were cultured and maintained in RPMI-1640 supplemented with 10% FBS in 37° C. for 6 days. T cell proliferation was quantitated using the WST-8 kit as described above.

B1: huOKT3 Fab: monovalent Fab prepared from huOKT3 IgG1 (antibody, V domains shown)
VH: QVQLVQSGGGVVQPGRSLRLSCKASGYTFTRYTMHWVRQAPGKGLEWIGYINPSRGYTNYNQKFKDRFTISRDNSKNTAFLQMDSLRPEDTGVYFCARYYDDHYCLDYWGQGTPVTVSS
VL: DIQMTQSPSSLSASVGDRVTITCSASSSVSYMNWYQQTPGKAPKRWIYDTSKLASGVPSRFSGSGSGTDYTFTISSLQPEDIATYYCQQWSSNPFTFGQGTKLQITR
- T cell proliferation in the absence of tumor targets: negligible effects
